Laboratory results: article PMC10786891, “Massively parallel profiling of RNA-targeting CRISPR-Cas13d”

T1: EsCas13d, nuclease-dead (Eubacterium siraeum, UniProt B0MS50, R295A;H300A;R849A;H854A)
T1 sequence: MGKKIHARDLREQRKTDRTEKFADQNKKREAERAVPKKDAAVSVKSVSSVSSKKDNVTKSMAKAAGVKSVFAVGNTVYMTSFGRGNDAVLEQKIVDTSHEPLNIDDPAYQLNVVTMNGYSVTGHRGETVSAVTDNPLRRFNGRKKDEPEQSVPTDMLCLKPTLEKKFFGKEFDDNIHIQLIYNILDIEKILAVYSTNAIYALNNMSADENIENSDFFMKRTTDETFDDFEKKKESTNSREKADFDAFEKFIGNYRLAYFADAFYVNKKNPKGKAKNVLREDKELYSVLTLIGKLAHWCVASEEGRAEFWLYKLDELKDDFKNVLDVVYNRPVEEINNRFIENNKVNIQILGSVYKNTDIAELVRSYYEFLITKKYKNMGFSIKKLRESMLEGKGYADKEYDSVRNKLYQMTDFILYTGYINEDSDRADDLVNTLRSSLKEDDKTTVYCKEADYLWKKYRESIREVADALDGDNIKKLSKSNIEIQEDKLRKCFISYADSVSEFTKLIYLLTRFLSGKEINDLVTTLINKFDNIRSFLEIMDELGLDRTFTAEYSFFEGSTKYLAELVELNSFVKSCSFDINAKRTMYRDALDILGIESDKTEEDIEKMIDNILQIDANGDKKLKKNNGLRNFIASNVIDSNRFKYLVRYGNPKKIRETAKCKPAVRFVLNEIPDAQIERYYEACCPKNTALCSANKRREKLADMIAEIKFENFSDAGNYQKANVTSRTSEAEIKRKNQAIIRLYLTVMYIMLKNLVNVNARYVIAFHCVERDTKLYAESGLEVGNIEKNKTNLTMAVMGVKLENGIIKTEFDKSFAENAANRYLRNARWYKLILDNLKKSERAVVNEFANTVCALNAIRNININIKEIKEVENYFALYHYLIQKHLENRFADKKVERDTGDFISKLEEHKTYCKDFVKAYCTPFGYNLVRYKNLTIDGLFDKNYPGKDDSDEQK


Biological target: T1, EsCas13d, nuclease-dead
Assay: crRNA (strand 1, pre-loaded); Mg2+; 40 mM Tris-HCl pH 7.5, 150 mM NaCl, 6 mM MgCl2, 1 mM DTT, 0.1% Tween-20, 0.2 mg/ml BSA; 25 C; 10 min per concentration, then washed
Details: tags: His6-TwinStrep-SUMO cleaved; N-terminal SNAP kept (SNAP-Surface 488); label: 3' end held by stalled T7 RNA polymerase

| Binder | Kd [nM] |
| --- | --- |
| target 3 A11G,U22A (mixed) RNA 1: CACCCGUGCAAAAUUGCAGGGGUCUAAAACGACCUGAAUAUUUCAGAUCAAA RNA 2: GGGAAUGGAUCCACAUCUACGAAUUCGUUAUUGAUCUGAAGUAUUCAGGUCUGCAGAUCGGAAGAGCACACGU | 67 ± 15 |
| target 3 A5U,U22C (mixed) RNA 1: CACCCGUGCAAAAUUGCAGGGGUCUAAAACGACCUGAAUAUUUCAGAUCAAA RNA 2: GGGAAUGGAUCCACAUCUACGAAUUCGUUCUUGAUCUGAAAUAUUCUGGUCUGCAGAUCGGAAGAGCACACGU | 70.5 ± 20 |
| target 3 G4C,C6A (mixed) RNA 1: CACCCGUGCAAAAUUGCAGGGGUCUAAAACGACCUGAAUAUUUCAGAUCAAA RNA 2: GGGAAUGGAUCCACAUCUACGAAUUCGUUUUUGAUCUGAAAUAUUAACGUCUGCAGAUCGGAAGAGCACACGU | 26.6 ± 1.85 |
| target 3 insA 3' of 14,insU 3' of 4 (mixed) RNA 1: CACCCGUGCAAAAUUGCAGGGGUCUAAAACGACCUGAAUAUUUCAGAUCAAA RNA 2: GGGAAUGGAUCCACAUCUACGAAUUCGUUUUUGAUCUGAAAAUAUUCAGUGUCUGCAGAUCGGAAGAGCACACGU | 43.5 ± 14.5 |
| target 3 G3U,A12G (mixed) RNA 1: CACCCGUGCAAAAUUGCAGGGGUCUAAAACGACCUGAAUAUUUCAGAUCAAA RNA 2: GGGAAUGGAUCCACAUCUACGAAUUCGUUUUUGAUCUGAGAUAUUCAGUUCUGCAGAUCGGAAGAGCACACGU | 86 ± 15 |
| target 3 insU 3' of 5 (mixed) RNA 1: CACCCGUGCAAAAUUGCAGGGGUCUAAAACGACCUGAAUAUUUCAGAUCAAA RNA 2: GGGAAUGGAUCCACAUCUACGAAUUCGUUUUUGAUCUGAAAUAUUCAUGGUCUGCAGAUCGGAAGAGCACACGU | 6.55 ± 0.65 |
| target 3 G19U,U20A (mixed) RNA 1: CACCCGUGCAAAAUUGCAGGGGUCUAAAACGACCUGAAUAUUUCAGAUCAAA RNA 2: GGGAAUGGAUCCACAUCUACGAAUUCGUUUUAUAUCUGAAAUAUUCAGGUCUGCAGAUCGGAAGAGCACACGU | 90 ± 27 |
| target 3 G4U,A12U (mixed) RNA 1: CACCCGUGCAAAAUUGCAGGGGUCUAAAACGACCUGAAUAUUUCAGAUCAAA RNA 2: GGGAAUGGAUCCACAUCUACGAAUUCGUUUUUGAUCUGAUAUAUUCAUGUCUGCAGAUCGGAAGAGCACACGU | 52 ± 13.5 |
| target 3 C6G,U8A (mixed) RNA 1: CACCCGUGCAAAAUUGCAGGGGUCUAAAACGACCUGAAUAUUUCAGAUCAAA RNA 2: GGGAAUGGAUCCACAUCUACGAAUUCGUUUUUGAUCUGAAAUAAUGAGGUCUGCAGAUCGGAAGAGCACACGU | 81.5 ± 10 |
| target 3 insU 3' of 5,insU 3' of 4 (mixed) RNA 1: CACCCGUGCAAAAUUGCAGGGGUCUAAAACGACCUGAAUAUUUCAGAUCAAA RNA 2: GGGAAUGGAUCCACAUCUACGAAUUCGUUUUUGAUCUGAAAUAUUCAUGUGUCUGCAGAUCGGAAGAGCACACGU | 2 ± 0.23 |
| target 3 insA 3' of 22,insU 3' of 5 (mixed) RNA 1: CACCCGUGCAAAAUUGCAGGGGUCUAAAACGACCUGAAUAUUUCAGAUCAAA RNA 2: GGGAAUGGAUCCACAUCUACGAAUUCGUUUAUUGAUCUGAAAUAUUCAUGGUCUGCAGAUCGGAAGAGCACACGU | 11.1 ± 1.15 |
| target 3 A5C,U22C (mixed) RNA 1: CACCCGUGCAAAAUUGCAGGGGUCUAAAACGACCUGAAUAUUUCAGAUCAAA RNA 2: GGGAAUGGAUCCACAUCUACGAAUUCGUUCUUGAUCUGAAAUAUUCCGGUCUGCAGAUCGGAAGAGCACACGU | 84 ± 31 |
| target 3 insA 3' of 8,insC 3' of 5 (mixed) RNA 1: CACCCGUGCAAAAUUGCAGGGGUCUAAAACGACCUGAAUAUUUCAGAUCAAA RNA 2: GGGAAUGGAUCCACAUCUACGAAUUCGUUUUUGAUCUGAAAUAUAUCACGGUCUGCAGAUCGGAAGAGCACACGU | 51 ± 5 |
| target 3 insA 3' of 6,insU 3' of 1 (mixed) RNA 1: CACCCGUGCAAAAUUGCAGGGGUCUAAAACGACCUGAAUAUUUCAGAUCAAA RNA 2: GGGAAUGGAUCCACAUCUACGAAUUCGUUUUUGAUCUGAAAUAUUCAAGGUCUUGCAGAUCGGAAGAGCACACGU | 31.9 ± 5.8 |
| target 3 insU 3' of 13,insA 3' of 6 (mixed) RNA 1: CACCCGUGCAAAAUUGCAGGGGUCUAAAACGACCUGAAUAUUUCAGAUCAAA RNA 2: GGGAAUGGAUCCACAUCUACGAAUUCGUUUUUGAUCUGAUAAUAUUCAAGGUCUGCAGAUCGGAAGAGCACACGU | 99 ± 25 |
| target 3 insG 3' of 9,insG 3' of 6 (mixed) RNA 1: CACCCGUGCAAAAUUGCAGGGGUCUAAAACGACCUGAAUAUUUCAGAUCAAA RNA 2: GGGAAUGGAUCCACAUCUACGAAUUCGUUUUUGAUCUGAAAUAGUUCGAGGUCUGCAGAUCGGAAGAGCACACGU | 71 ± 10 |
| target 3 G3U,U8C (mixed) RNA 1: CACCCGUGCAAAAUUGCAGGGGUCUAAAACGACCUGAAUAUUUCAGAUCAAA RNA 2: GGGAAUGGAUCCACAUCUACGAAUUCGUUUUUGAUCUGAAAUACUCAGUUCUGCAGAUCGGAAGAGCACACGU | 103 ± 17.5 |
| target 3 C6A,U8G (mixed) RNA 1: CACCCGUGCAAAAUUGCAGGGGUCUAAAACGACCUGAAUAUUUCAGAUCAAA RNA 2: GGGAAUGGAUCCACAUCUACGAAUUCGUUUUUGAUCUGAAAUAGUAAGGUCUGCAGAUCGGAAGAGCACACGU | 65 ± 7.5 |
| target 3 insA 3' of 22,insU 3' of 3 (mixed) RNA 1: CACCCGUGCAAAAUUGCAGGGGUCUAAAACGACCUGAAUAUUUCAGAUCAAA RNA 2: GGGAAUGGAUCCACAUCUACGAAUUCGUUUAUUGAUCUGAAAUAUUCAGGUUCUGCAGAUCGGAAGAGCACACGU | 23.1 ± 3.65 |
| target 3 insC 3' of 9,insA 3' of 3 (mixed) RNA 1: CACCCGUGCAAAAUUGCAGGGGUCUAAAACGACCUGAAUAUUUCAGAUCAAA RNA 2: GGGAAUGGAUCCACAUCUACGAAUUCGUUUUUGAUCUGAAAUACUUCAGGAUCUGCAGAUCGGAAGAGCACACGU | 83.5 ± 14 |
| target 3 A5U,A18G (mixed) RNA 1: CACCCGUGCAAAAUUGCAGGGGUCUAAAACGACCUGAAUAUUUCAGAUCAAA RNA 2: GGGAAUGGAUCCACAUCUACGAAUUCGUUUUUGGUCUGAAAUAUUCUGGUCUGCAGAUCGGAAGAGCACACGU | 117 ± 25 |
| target 3 G4C,U22A (mixed) RNA 1: CACCCGUGCAAAAUUGCAGGGGUCUAAAACGACCUGAAUAUUUCAGAUCAAA RNA 2: GGGAAUGGAUCCACAUCUACGAAUUCGUUAUUGAUCUGAAAUAUUCACGUCUGCAGAUCGGAAGAGCACACGU | 10.7 ± 1 |
| target 1 insC 3' of 14,insU 3' of 14 (mixed) RNA 1: CACCCGUGCAAAAAUGCAGGGGUCUAAAACUGAGCGGAUAACCUCUCUAUGG RNA 2: GGGAAUGGAUCCACAUCUACGAAUUCGUACCAUAGAGACUGGUUAUCCGCUCACCGAGAUCGGAAGAGCACACGU | 50 ± 12 |
| target 1 A9U,C22U (mixed) RNA 1: CACCCGUGCAAAAAUGCAGGGGUCUAAAACUGAGCGGAUAACCUCUCUAUGG RNA 2: GGGAAUGGAUCCACAUCUACGAAUUCGUAUCAUAGAGAGGUUUUCCGCUCACCGAGAUCGGAAGAGCACACGU | 24 ± 4 |
